Source: the supplement of paper PMC12764529
± gives the half width of the 95% confidence interval.

Assay: folding stability dG unfold (combined trypsin and chymotrypsin); higher = more stable
Protocol: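 Folding stability of de novo designed mini-proteins (<80 aa, no Cys; designed by TrROS, TrMRF, ProteinMPNN and the joint model) was measured by cDNA display proteolysis with trypsin and chymotrypsin. Each protease was used at 11 concentrations in a threefold dilution series plus a no-protease condition. K50 was inferred by Bayesian fitting of sequencing counts, and dG unfold was derived against a sequence-predicted unfolded-state K50 (Tsuboyama et al. method). Sequences shown include variable-length N-terminal GS-type padding (SAGGSAGG...) inside a display construct carrying a PA tag. Rows were kept only if the AF2 dimer inter-PAE was >15, to exclude likely homo-oligomers.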

Sequence | folding stability dG unfold [kJ/mol]
SAGGSAGGSAGGPMYTVHTETFTTLEPGAGKRIVTTRTTNPATGATATTTTVIPLEPEALSAGGSAGGSAGG [r17_153_JUSTAS] | < -4.18
SMVIPSSLGFEPALERVRALLPPERRYVVTELDPATGETTTATYDPATGTVTTTATPSAAGPPYVVVEVVSA [r9_1059_JUSTAS] | -1.05 ± 0.36
SAGGSAGGGSMDPKVETEEFEEPGREVKREKLPDGLVVTEYTEPDGPKSTVVTDPETGKVTVIGSAGGSAGG [r6_159_JUSTAS] | 0.343 ± 0.628
SAGGSAGGMTIPLPGSVEEIQELLGGPIKEYTEEAPGSGTLTLPNGTPITVERESPELLKEVLRSAGGSAGG [r6_19_JUSTAS] | -2.48 ± 1.55
SMNVTEEVTVEELPSGEVLTETVVTEPSGVTTVTTTLASPPDRPVVETRTTTYPPDGSSTETSTVAPLPGSA [r9_1179_JUSTAS] | 0.0305 ± 0.962
SAGGTATVEAALAALPADLPRGSLALHPETGLVEPLEPSPEDAVAYPVNPATGERYPLRVEADAVRLLSAGG [r13_803_JUSTAS] | -2.16 ± 0.628
SAGGSAGGSAGGSKLKEGEKYKVYFKKTKKELEVETLEQLKALEKAGKKVEIVKIEKVPSAGGSAGGSAGGS [r4_214_TrROS_Hall] | -1.12 ± 0.586
SAGGSAMVVPVASEEEARAVAEEAAARGEPVVIAFPGGRALVVETAAAPTPEPVLRVEEREVPPLLSAGGSA [r15_761_JUSTAS] | 0.904 ± 0.142
SAGGSAGGSAGGSATVTTTTTSGATITPPALTELPSGYVAVVTPTGDTLNVVIAPKALLSAGGSAGGSAGGS [r4_279_JUSTAS] | -4.04 ± 2.05
SAGDLGEEALKDITENSTPVSPNETRTTTAVIKYKDKLVKITTTVKVPPESGTTVLSTPIEIFSPEELKSAG [r5_96_JUSTAS] | < -4.18
SAGGSAGGSAGGAKPVTFTFPDGTKAVSVEETPTSVVLYDPGPGALYVLDKETKTITPASAGGSAGGSAGGS [r10_289_TrMRF] | -3.01 ± 1.42
SAGGSAGMVVEPREVVIKLKPPNGPETTLEVELVEVEPDSLVLRNGDTPIVLPPDAEDVEILEVTGSAGGSA [r15_510_JUSTAS] | 0.21 ± 0.92
SAGGSAGGSAGMPLEELAQEALNQFQENGEPVEIDIEVETPNGEYFPFEVEINGDGLKIRSAGGSAGGSAGG [r11_954_TrROS] | -0.38 ± 1.34
SAGGSAGGSPKPKRRTIEFPLKVPPGMSPEDVADELKQQPGFEIDEIDEVDPDEGWVKISVELSAGGSAGGS [r12_712_TrROS] | < -4.18
SAGGSAMTEEEFETEFSDPNNSLSTKVKTTRYLEGDTPVVKTTYTTEDPNTGSTYTTEKVTVIPKKSAGGSA [r15_960_JUSTAS] | -3.73 ± 1.21
SAGGSAGGSAGGSMKSVPVITTTTTVLPNGTTVTTTTVNNVTSSGTTSSTTTTVTPSLLSAGGSAGGSAGGS [r4_486_JUSTAS] | -3.5 ± 0.92
SAGGSAGGNPDTPVLTRKTSETFNIAPGEVVKFPDSSVVTPTEDGTYTIDKTITYNGPPDKPLTSAGGSAGG [r6_635_JUSTAS] | -1.17 ± 0.962
SAGGSAGGSARTVPPDLLVRVETPDEERIVPVSELDAFFARHPDVPWRDITVVDPATGAARSAGGSAGGSAG [r3_134_JUSTAS] | -2.83 ± 1.55
SAGMPLPVKLVSFEPGANTLTIDRPYTNGPVTLSPDGTLTITGTLRDENGKPLETFTETIPVNWPEGTRSAG [r5_475_JUSTAS] | -2.38 ± 0.711
SAGGMKIIKELYDKLPPEVKYFSVPFHYPTGKVEPVKPSPTLSMFEPFNPETGEVDRFVVYRDKIEPLSAGG [r13_803_TrMRF] | -0.958 ± 1
SADKVIIPFDSPEEIKGIIKEARKAGIPGKEIVIWSEDDWMYKIEVDPNKGNVEIEPVMPPEDLNDEMPSAG [r14_913_TrROS] | 0.0537 ± 0.502
SAGGSMSTTLPDGGKVTVYSDPNKPLTLVEVELPDRRLVVLRPVSAPEDGTIVAPVEVRPLEEVEEASAGGS [r16_85_JUSTAS] | < -4.18
SAGGSAGGSAGGSGSTTPIPATGATLTTETLPDGSPLYTLTDPATGATTTYPPGAPVGLSAGGSAGGSAGGS [r4_158_JUSTAS] | < -4.18
SAGGSAITLEDIRNMPIEEIAKEMQDHFPNGQKQPIEFEYPDGRKLRIKAEYPPNGEPKIDIEPVDSAGGSA [r15_857_TrROS] | < -4.18

Sequence | folding stability dG unfold [kJ/mol]
SAGGPAGEEVPVRITARIYMPDPDGKMHSHEIPIDIPMPVDELKEKLIKEIMDEHGYHITEIDIEPYSAGGS [r16_511_TrROS] | -2.98 ± 1.05
SAGGPIKRDPDGKIEIHYNEDNGRWHVKIRDPGKPKKEREFKSPDDANEFAKSFANDGWKIDKVEPYPSAGG [r13_727_TrROS] | 3.49 ± 1.34
SAGGGSMVVEKPVALPPDTDVEEVAKEVAEELFPEDEKYKIEVERYPDSVRITVYDPKNGKPVIETVDSAGG [r13_724_JUSTAS] | < -4.18
SAGGKPGEPVKIKMRGPDGQPMTFPFYAPEPVKIKMNNPGEEHEHTIPPGEPLTFPLPPGDIEVEPVSAGGS [r16_456_TrROS] | -0.715 ± 0.837
SAGGSGDSMLVPVSESTSSYPPSGIVRSTKTILDPKKGGIITETTTTTLTPDGNPLSTTPSTTVKESAGGSA [r2_253_JUSTAS] | -1.02 ± 0.962
SAGGSAGGSAGPWVPIAPGPNGMWIWAEPDPDKFTIRMFPMSPDGKIPDVQEHEIPPEDFSAGGSAGGSAGG [r11_88_TrROS] | -0.904 ± 0.711
SAGGSAGGSAGGMPPVEIVEIVNSPGKNPVIVLDPATGEPRLIEVPPDVTLTPEMARRESAGGSAGGSAGGS [r10_844_JUSTAS] | 0.21 ± 0.837
SAPMTPAERARPRIKKLVNLLAEDGNFKVDIERDPGDPGVVVTIKLDPNSREKFAERLGIPRDELYDLISAG [r14_688_TrROS] | -1.56 ± 1.72
SAMTISVSETPDTGSLTVPMTLEPDTVEEVVEEVAKEIAPEEAEVSIEVTEVVPHPDSVTVTAKITVRPSAG [r14_345_JUSTAS] | -0.278 ± 0.356
SAGGSAGGSASLSLDQVGTVTFPANGAPALVTRLPDGSVALYFPATGRVLYLDGPNDVTPDSAGGSAGGSAG [r3_96_TrMRF] | 2.31 ± 0.314
SAGGSAGGSMTITIKLDNVKEVEVKFNPETNVVEIKVKVDGKEYVIRMEFVDGKIYITEIKPLSAGGSAGGS [r20_60_TrROS_Hall] | 17 ± 1.17
SAGGLTTQETVSLTSPTNVALTVLSTSVTLSPSTRTLSYTVQGPDGTVTTETVVTPAPLPELDPSAGSAGGS [r16_132_JUSTAS] | -0.664 ± 0.628
SAGGSAGGMTPEEIRDALAAKLRAADPDVEVRPVRQEGDEVVVVVTRPATGERREVRVPADVPLSAGGSAGG [r6_446_JUSTAS] | -0.404 ± 0.753
SAGGSAGSVPSIVIESYDPEKGIVTVSYPATGATYTVEVPPGSTSLTVTVTDADGTPRTFTFPLPGSAGGSA [r2_132_JUSTAS] | 22.4 ± 0.502
SAGGSAGGSAGEVLIVAPAALLKEAIGPGVEVLAVDDDVVVVRVPVPPVPLTDANGNPLPSAGGSAGGSAGG [r11_828_TrMRF] | -0.629 ± 1.26
SAGGSAGGSLRPDEEVVAILPNGEKVPFKVESVEVSPDGSVKANLTLPGGKSLGPANLVFKPESAGGSAGGS [r12_735_TrMRF] | -2.63 ± 0.92
SAGGSAGGMTARKTYEVEVPADDPDALADLAFDLPAGDTVYFRTPGPDLRAVVTDDVPVVEPAGSAGGSAGG [r6_550_TrMRF] | < -4.18
SAGGSAGGSKKWIPIDSPSEIEDLLEKAPPGGKLKIYNNNGQTEKVPPNEIERTPNHWWIEVDSAGGSAGGS [r12_907_TrROS] | -1.94 ± 1.88
SAGGSAGGSAGGSSSMVEVEVESEEELEAYLEPLAARGVEVTLTSRDPETGRWLLRVTPPSAGGSAGGSAGG [r7_964_JUSTAS] | -0.381 ± 0.837
SAGGSAGGSAGGWIVRIEHGGKERMFQFDSPEEIKDQIRPMFPNGKKVKVEVMPPDDLKSAGGSAGGSAGGS [r10_1167_TrROS] | -2.02 ± 0.879
SAGGSAGGSAGYPPVPPAVVQAVVDELPRLGYTPKAVVVGEGPDLPFVLVVADDKVLLVRGSAGGSAGGSAG [r3_395_TrMRF] | -1.59 ± 0.586
SGMEEIKIEVLSTETDESGTTYTETKIVLPDGKVIEATMTTTTVPDAAGNPVAVETLTLKDKTYTRTIPLSA [r9_271_JUSTAS] | 0.425 ± 0.711
SAGGSAKRVAFIGGGPEIEKVIKEAEKNGFEAVPFDGTPDEFLDALKKNFPDVKQIVFPDGKVLDASAGGSA [r15_712_TrMRF] | -0.559 ± 0.544
